Results from the DeepSol protein solubility set.

assay: soluble on expression in E. coli; label from the status in PepcDB or PDB records

Sequence	soluble on expression in E. coli
MTDLPLTGRARPDRRPHTLAEWRAEGGYEAVDRARSMAPAEIIDMVEAAHLNGRGGAGFPAGRKWRFMPERGTSPGEGPSYLIVNGDEMEPGAFKDRFLLEALPHQVIEGAIITARATHADEAIVLIRDEYRPGIAAVERAIHEARDAGLLGDLAIRVHPSAGRYIVGEETALITALEGHRAVPRKRPPFPAQSGLWGRPTTVNNVETISLVPHILSLGPQRFRALSRTEEGGTKLYGVSGRVKRPGLFEAPMGTTARELIERAGGVSGDGQLRAFQPGGGASGFFGPDRLDLPLDFGHVAKAGSMFGTGMLIVLDGTACPVGFLARHMRFYARESCGWCTPCREGLPLVAKILDRFAAGQGRRADLELLQMTAAEAAPRGRSFCDLMGGAMAPLASGLSMFAAEFEARLAEGERALEHHHHHH	not soluble
LQQQEEETYADACDEFLDPIMSTLMCDPVVLPSSRVTVDRSTIARHLLSDQTDPFNRSPLTMDQIRPNTELKEKIQRWLAERKQQ	soluble
MSLRTIKNLRDMIEQSSKLFANKDAFRVKTKDNSYRGITFAEFKNDIDAFGTALLDLLGTEKGFVAVIGENRYEWCVTYLATINGVGVVIPLDKELPLPELENLLKQSNANAIVYSGKFHDAIKEMSSRLSNIKYFINMNTNEHEDDKFLSFWVLLEKGKKLLESGKKDYLNAPIDENAMSAMIFTSGTTGQAKAVMLSHKNICSNMMAVSASVYMDSTDSVLSILPLHHTYECTAGFLTMIYNGATITFNEGLKYIGKNLKEAQPTILILVPLILESMYNKIWEQASKDKSLKFKLKAGLFISNLLYKVFKIDIRRKLFKSVIDNVGGKLRLVISGAAALDPEVAKGFEAMGIKVLQGYGLTEASPIVAVNRDKSYRHDSVGLPLPGLDVEIINPDKEGFGEIIVKGDSVMLGYYNNDDATKAVLKDGWLYTGDLGRMDEKGFIYITGRKKNIIVTKTGKNIFPEEVEAYLNKSPYIKESLVSGRENDKNDETIVVAQIVPDMDAIKAKLKTDTVPSPEEVYKLIKAEIRAINKNMPVYKRVVDITIRENEFAKTSSKKIKRYLEKTNEGHHHHHH	soluble
MNEQRLSMRLERVATHVPAGARLADIGSDHGYLPVALLNRGAVSAAVAGEVALTPFYAAERTVRENDLDQQISVRLADGLAAIEPTDRITAISLCGMGGETIRDILESGKARLSGQERLILQPNGGEQPLRVWLMEHNYRILDEEVLRENRFDYEIIVAERTGPMIYTAEQLYFGPIQMQTRSPAFLLKWQRLLGKKHKALSNFARARKAVPEEKMQDLAQQIRWITALLN	not soluble
MNEILKCIGCGAPLQSENKDAPGYVPEHNMFREDVICRRCFRLKNYNEVQDVGMESEDFLNLLTGLSEKKGIIVNVVDVFDFEGSFINAIQRIVGNKKIILVANKIDLLPKQINHRRVKEWLRKSARKYGLEAEDVVLISANKGWGIDELLQSINHVRNKDDVYIVGTTNVGKSTLINKLIEQSVGEKDVVTTSRFPGTTLDMIDIPLDEKSFMFDTPGIIQSHQMTNYVSENELKIIIPKNEIKQRVYQLNEKQTLFFGGLARIDYVSGGKRPLVCFFSNDLNIHRTKTEKANDLWKSQLGALLSPPQDAQQFNLNDVKAVRLETGKTKRDIMISGLGFITIDAGAKVIVRVPKHVDVILRNSILLEHHHHHH	soluble
MGSDKIHHHHHHMQSIVQTNFTGIDGLIIRNEPRPALTDNGVLIAMETLPVVPSDWHKETDPNATAEQALQLPRVIGIGGVGTVIEVGHNRDQKLLHQRVLVMHPKGSYQEFILNTNSDWLFPLPINVSNAEAATLTAGPGVALALTEFIKQNPSDHLVITGANSVIGLILCQLLGSTYPGLTPIVSPDSQAYFNQSLPGYPVYSIEHLQLFHGRTLIIDIAGSEPLLQQLIAAVPRASIASIALQTSNLNVPFTFVHEDFNHQIYCHLIKTVASHKLWLPIGRIFSFAETKKAQHYAKDHHSRGRVLVNLN	not soluble
GLNPPSAFSGAALACLEKMQASGVEEKCIHIFLIQHALVRKGETGYIPEKSISPVESLPFLQGIETKGENTALLRQAVVLKLNGGLGTGMGLNGPKSLLQVKNGQTFLDFTALQLEHFRQVRNCNVPFMLMNSFSTSGETKNFLRKYPTLYEVFDSDIELMQNRVPKIRQDNFFPVTYEADPTCEWVPPGHGDVYTVLYSSGKLDYLLGKGYRYMFISNGDNLGATLDVRLLDYMHEKQLGFLMEVCRRTESDKKGGHLAYKDVIDETTGQTRRRFVLRESAQCPKEDEDSFQNIAKHCFFNTNNIWINLMELKKMMDEQLGVLRLPVMRNPKTVNPQDSQSTKVYQLEVAMGAAISLFDRSEAVVVPRERFAPVKTCSDLLALRSDAYQVTEDQRLVLCEERNGKPPAIDLDGEHYKMIDGFEKLVKGGVPSLRQCTSLTVRGLVEFGADVSVRGNVVIKNLKEEPLIIGSGRVLDNEVVVVE	soluble
SMGGRRAVRVWCDGCYDMVHYGHSNQLRQARAMGDYLIVGVHTDEEIAKHKGPPVFTQEERYKMVQAIKWVDEVVPAAPYVTTLETLDKYNCDFCVHGNDITLTVDGRDTYEEVKQAGRYRECKRTQGVSTTDLVGRMLLVTKAHHSSQEMSSEYREYADSFGKCPGGRNPWTGVSQFLQTSQKIIQFASGKEPQPGETVIYVAGAFDLFHIGHVDFLEKVHRLAERPYIIAGLHFDQEVNHYKGKNYPIMNLHERTLSVLACRYVSEVVIGAPYAVTAELLSHFKVDLVCHGKTEIIPDRDGSDPYQEPKRRGIFRQIDSGSNLTTDLIVQRIITNRLEY	soluble
MGSDKIHHHHHHMKIRVDIIGLKGGVGKTTIALNTALYLSKRYKVLYIDKDLLSMGSLILGFNGLGFNKAIVEGLGNEQYEYKVNNNLTLFKLYSDPVNERELQHKVKGMGEKAERAYVDVVSKGYDVIIVDYGRIFRTNDPLVYDEYEMFKKNFPDYTIAAAGITDAIRNDVTDVVKYFLDTINRIKAKPLAFVINMVPQIGDIQKEINQIVREISEVVKCDILTIPFNEKLVQYANMGEVEEMQKVGKLIERILSNG	not soluble
MGSDKIHHHHHHMTPSNVNSAGYKVIKISEFLSKKEYLDKKLVIPVYQRPYRWTAKNIVDLLSDLYYQCKRIGHRLGSPDNPDNFYRLGTVVLHQYVNNGSHQTNADLVDGQQRTLTLLLIMKSALESNRFTEQFNSFTPLEIELPDCSETQQNLSRNYELIRRHVNSPEFTSEVLDFLLNHCEVVQVTLHYLSEAFQFFDSQNARGLDLNPHDLLKAFHLREFPDSESLLKQNIVECWEQQNTKSLEVLFANYLYPIRRWSFGKQAVHFSKSEVNVFKGMKLDSDSYPFQENLRIVHNTVDSYNHHSHRLLDQQAMAYPFQLTQTLINGRRFFEWVTHYQEMIQPLLNKTIDSDSQKWLYTITSCHHTETGTSIKEVAKRPTAFNIFLVLNTDLPEYSYKGRSRRGDQYVRRMFDALVLCYYDRFGSHNLPRAIEYIFIWAYSLRLEKKSVYLESIEKHIGTDNLFERLQQSLSSVDFLSKPLPQPKKVDVTNVEGIKELFTKLGYLPT	not soluble
MHPVILFDGDCLFCHASAHWIAARDRQAVFRFAAQQSIVGQALLAKQEMSAEDSVVLIENGCCYVKSEAVLRIGRRLAWPWNWLAAAGFLIPRLLRDHMYDAIANRRHRLVPKRDHCQLPSPELRARFLDELPQ	not soluble
MSPVEAALETLAHTMGITVIETSKLGSTLNACFHPPTQTIFIKIGLDPVTRRCAIAHELGHAHYGHNCSTPGAERQADEWAAQQLLDVGDVEAVGLECEGSAAAMAAELGVTPHLLVLWMGMYERGRIQPEKRAC	not soluble
MTAHFRPAVYDLPRDGHTVFRWEHPPQQATVELERLQRKQSLAAAFRVFARLGFDMGGAGHITVRDPGRPDHFWVNPVGVYFGHVRVRDLLLVNPEGAVIEGEGALNLAAFAIHAALHEAHPEVVAAAHAHSLYGKAWSSLGRLLDPLTQDACAFYERHGLFDNFSGVVLEASEGVRIAAALAGRKALILQNHGLLTVGETVEAAVWRFIAMDNAAQTQLLAEAAGTPRPIPHEVARHTARQVGTEFGGWFSFQPYRERIVREEPDFLDLEHHHHHH	not soluble
MSLEKVGTIGVAIPSATHGFMGGLNFHAQDTIKRLQQVYPQLDFVLATAGNAGKMVNDIEDMVATRNISALVVLPFESEPLTSPVQAVKEAGIWVTVVDRGLSVEGIEDLYVAGDNPGFGRVAGEYFAQHLESGKKIVVLRGIPTTLDNERVEAFTAAIEGSGIEVLDMQHGNWNRDDAFNVMQDFLSKYPQIDAVWAADDDMAIGAMEAIAQAGRTEEMWVMGGAGMKEIIRRIADGDPQLPANVTYPPAQISTAIELTALKLVSSTPVSGRFIIGSQLVTPENAEQFYFPDSEGHHHHHH	soluble
MNQHNTRLIRLPEVLHRTGYGKAWIYHLINQNRFPSPVKIGARSVAFIESEVDEWIQLTIENSRKHVA	soluble
MRFSNDHPFNQMRLKLTTELLLDLGSLKPEHIITPRIATDEELSLIHSYDYIQAIRRASHGILNLQEAKKYGLDGDDTLQFRRMHQHSARIVGGALNLADAIMDKSVKNGCHLGGGLHHSLPGRANGFCIYNDVAITIAYLIKHYNQRVLCIDTDAHHGDGTQWSFYTEDQALIYSIHETGKFLFPGSGHYTERGNEQGFGYTVNIPLEPYTEDSSYLEVFKQTIEPIIASFKPDIIVSVHGVDVHYLDPLTHMSCTLNTLYQIPYIIKSLADTYTNGKVMMFGGGGYNIWKVVPRAWSHVFLALIEAPPPLEHHHHHH	soluble
ETDKKGENAPDTKRIKETLEKFSLENMRYVGILKSGQKVSGFIEAEGYVYTVGVGNYLGQNYGRIESITDDSIVLNELIEDSTGNWVSRKAELLLNSSDKNTEQAAAPAAEQN	soluble
MSLTLAFAYVRASTIEEVRQGSNERQKEAIRQYTYQKGYELEIFEDKAKSGRNTLRPEFERMLKSLDRRPQIVIVSKIDRFARSLSDLLKTLEYLDQNGVGFVSVNDPGIDTTTPNGRLLLQILGAFAEFERNMINSRTKAGREQAQSKGVKKGIITITTDPNSSSVDKLAAALEHHHHHH	soluble
MFEIATTPMATTVVISGDLDLASRDQFLEVAARLTSLRRSLLTIDMCDVRFMDSTGAAFLISLAETGQRRGWLTVLRGSSDAHRFVLDICGATHLFRFDTEHYCHHTASPA	not soluble
MFNGDDDFPMGAMHSFGQMHQQMMSDMNMMTGGMLRNMGMGGPMFGGLMVPSPFGAITDGSGQQPSRRRQELEMNPFAPFGGLLGGLGGMGMMMPPPGQGANMYMSSSVMTIGPDGKPRVEQQTVRRHGDVTETKRRVDKNGESSMSIGHSIGDRSHFIDKKRDREGNVRKQQRFQNLDEASAEAFDREFSSRVRQGYGSGSRSSNLREIDNGLSSSRRSPFGGAGASSSSRRMESRGASRGAPIVTLPEEEETAHSRSSTSHRVGGPLIREISEEEAEQAASSIPKRRRGQQ	not soluble
MEDLKHSDALVREQATKKLWRIWFQQKGMYGLEKIDQSQKLLDAGEITEAEVMLTQLIQEQPDFAEAWNRRAFLYYSMGEYQKSLADCQMVIQINPVHFGALHGIGLCYAALGKYAKAIKAFKRALEIQPYSLVNQKLILECTFRLSLEHHHHHH	soluble
MGSDKIHHHHHHVLIWWRGKFRRADEISLDFSLFEKSLQGAVYETLRTYSRAPFAAYKHYTRLKRSADFFNLPLSLSFDEFTKVLKAGADEFKQEVRIKVYLFPDSGEVLFVFSPLNIPDLETGVEVKISNVRRIPDLSTPPALKITGRTDIVLARREIVDCYDVILLGLNGQVCEGSFSNVFLVKEGKLITPSLDSGILDGITRENVIKLAKSLEIPVEERVVWVWELFEADEMFLTHTSAGVVPVRRLNEHSFFEEEPGPVTATLMENFEPFVLNLEENWVGI	soluble
MGHHHHHHSHMGRCYNNIVIDASIEAVWQQIGNFHDMSWAKGVITSLVKVGPASGTEVGAKRILNDAIHETLVSLDSSNYTFTYSIDDGPDAIAKSAVDNYLGMVNLSESSTGVLVEWSSSFTSDNEKAVTEFCDP	not soluble
